Tests used:
Type in all cases: in vivo, mouse
[1] = test system: 8-week old (young) wild-type (C57BL/6) mice; assay: Y-maze in young mice treated with recombinant human LTA4H protein
Description: A large Y-maze test assessed short-term memory of the familiarity of a specific context. Mice were brought to the experimental room for at least 30 min of acclimation to the experimental room conditions (dim lighting) prior to testing. For the initial training trial, the mouse was placed at the end of one arm of a large Y-maze designated “start arm” (arm length: 15 inches). The third arm of the maze was blocked off, allowing the mouse to explore two of the three arms freely (“start arm” and “familiar arm”) for 5 min. Each arm contained spatial cues. Three hours later, the mouse was placed back into the maze in the “start arm,” and allowed to explore all three arms with the third arm unblocked (“novel arm”). Movements in and out of each arm were tracked using automated tracking software (CleverSys or San Diego Instruments). Testing was performed under dim lighting, and the apparatus was cleaned with 70% ethanol between trials. The time spent and number of entireties into the “novel arm” and “familiar arm” were analyzed, as well as total distance travelled and velocity as measures of general locomotor activity.
The initial study in young, 8-week old wild-type (WT; C57BL/6) mice was repeated in a second cohort of mice with additional timepoints and readouts. Mice were homogenized between 3 treatment groups by body weight. Group 1 (Vehicle) was injected intravenously (IV) with PBS control 3 times per week for 6 weeks, group 2 (LTA4H Pulse) with recombinant human LTA4H protein daily for 7 consecutive days, and group 3 (LTA4H Continuous) with recombinant human LTA4H protein 3 times per week for 6 weeks. In week 4 after the initiation of dosing, mice in all treatment groups were injected IP with BrdU (5-bromo-2′-deoxyuridine) formulated in PBS (phosphate buffered saline) at a final concentration of 10 mg/mL dosed at 150 mg/kg for 5 days. Behavioral assays were executed in week 5 and 6, and animals were sacrificed, and tissues collected immediately after completion of behavior testing in week 6. FIG. 10 depicts the treatment paradigm and injection timing for the study. […]

[2] = test system: 8-week old (young) wild-type (C57BL/6) mice; assay: Open field test in young mice treated with recombinant human LTA4H protein
Description: The open field test was used to evaluate general locomotor activity and exploratory behavior in a novel environment. It consisted of a square arena (50 cm×50 cm). Mice were brought to the experimental room for at least 30 min of acclimation to the experimental room conditions (dim lighting) prior to testing. Mice were placed in the center of the arena and tracked using automated software (CleverSys or San Diego Instruments) for 15 min. Total distance traveled, average velocity, and time spent in the peripheral and center zones were analyzed.
Recombinant human LTA4H (Bio-techne, 4008-SN) was buffer-exchanged into sterile PBS and dosed at 4.6 ug/150 uL by tail vein i.v. injection. SC-57461A (Cayman Chemical, 423169-68) stock solution was prepared at 10 mg/mL in DMSO. Stock solution was diluted into sterile PBS immediately prior to p.o. dosing to a final concentration of 10% DMSO and 1 mg/mL SC-57461A. Mice were p.o. dosed at 5 mg/kg. CP-105,696 (Sigma, PZ0363), Pinostilbene hydrate (Sigma, SML0098), and Montelukast (Cayman Chemical, 10008318) stock solutions were prepared at 30 mg/mL in EtOH/Solutol. Stock solutions were diluted into sterile PBS immediately prior to p.o. dosing to a final concentration of 10% EtOH and […] inhibitor. Administration to mice was performed p.o. at a dose of 10 mg/kg. Vehicle was 10% EtOH/Solutol and was dosed p.o. at a volume of 150 uL.
(§1) Young, 8-week old wild-type (WT; C57BL/6) mice were homogenized between groups by body weight. Following group determination, mice were injected intraperitoneally (IP) with BrdU (5-bromo-2′-deoxyuridine) formulated in PBS (phosphate buffered saline) at a final concentration of 10 mg/mL dosed at 150 mg/kg for 5 days Immediately following the BrdU dosing, group 1 was injected intravenously (IV) with PBS control and group 2 with recombinant human LTA4H protein daily for 7 consecutive days. One week after the completion of LTA4H administration, in week 3, mice in both treatment groups were injected IP with EdU (5-ethynyl-2′-deoxyuridine) formulated in PBS at a final concentration of 10 mg/mL and dosed at 50 mg/kg for 5 days. Behavioral assays were executed in week 5 and 6, and animals were sacrificed, and tissues collected immediately after completion of behavior testing in week 6. FIG. 3 depicts the treatment paradigm and injection timing for the study.
(§2) The initial study in young, 8-week old wild-type (WT; C57BL/6) mice was repeated in a second cohort of mice with additional timepoints and readouts. Mice were homogenized between 3 treatment groups by body weight. Group 1 (Vehicle) was injected intravenously (IV) with PBS control 3 times per week for 6 weeks, group 2 (LTA4H Pulse) with recombinant human LTA4H protein daily for 7 consecutive days, and group 3 (LTA4H Continuous) with recombinant human LTA4H protein 3 times per week for 6 weeks. In week 4 after the initiation of dosing, mice in all treatment groups were injected IP with BrdU (5-bromo-2′-deoxyuridine) formulated in PBS (phosphate buffered saline) at a final concentration of 10 mg/mL dosed at 150 mg/kg for 5 days. Behavioral assays were executed in week 5 and 6, and animals were sacrificed, and tissues collected immediately after completion of behavior testing in week 6. FIG. 10 depicts the treatment paradigm and injection timing for the study.

[3] = test system: granule cell layer of the dentate gyrus; assay: Histology of labeled proliferating cells (EdU, Ki67, BrdU/DCX) in the dentate gyrus of young mice; conditions: for number of Ki67-labeled cells within the granule cell layer of the dentate gyrus: study week 6; for number of BrdU and DCX co-labeled cells within the granule cell layer of the dentate gyrus: BrdU in week 4
Description: Brains were collected following saline perfusion and separated by mid-sagittal slice with one-half drop fixed in freshly prepared 4% PFA. PFA was changed to 30% sucrose 24-48 hours later. A second change to 30% sucrose occurred 24 hours later. The second half was dissected into hippocampus and cortex and then snap frozen on dry ice.
Brain tissue was sectioned or lysed and analyzed for markers of neurogenesis and aging by standard histological and biochemical methods, including qRT-PCR, Western blot, ELISA, and immunohistochemistry.
as §1, §2

[4] = paradigm 1: IV daily for 7 consecutive days, vs PBS, tested week 5-6
[5] = paradigm 2: continuous dosing, IV 3 times per week for 6 weeks

B1: recombinant human LTA4H: Recombinant human LTA4H (Bio-techne, 4008-SN), leukotriene A4 hydrolase enzyme, dosed by tail vein i.v. injection (protein, UniProt P09960 2-611, looked up)
Leukotriene A-4 hydrolase: PEIVDTCSLASPASVCRTKHLHLRCSVDFTRRTLTGTAALTVQSQEDNLRSLVLDTKDLTIEKVVINGQEVKYALGERQSYKGSPMEISLPIALSKNQEIVIEISFETSPKSSALQWLTPEQTSGKEHPYLFSQCQAIHCRAILPCQDTPSVKLTYTAEVSVPKELVALMSAIRDGETPDPEDPSRKIYKFIQKVPIPCYLIALVVGALESRQIGPRTLVWSEKEQVEKSAYEFSETESMLKIAEDLGGPYVWGQYDLLVLPPSFPYGGMENPCLTFVTPTLLAGDKSLSNVIAHEISHSWTGNLVTNKTWDHFWLNEGHTVYLERHICGRLFGEKFRHFNALGGWGELQNSVKTFGETHPFTKLVVDLTDIDPDVAYSSVPYEKGFALLFYLEQLLGGPEIFLGFLKAYVEKFSYKSITTDDWKDFLYSYFKDKVDVLNQVDWNAWLYSPGLPPIKPNYDMTLTNACIALSQRWITAKEDDLNSFNATDLKDLSSHQLNEFLAQTLQRAPLPLGHIKRMQEVYNFNAINNSEIRFRWLRLCIQSKWEDAIPLALKMATEQGRMKFTRPLFKDLAAFDKSHDQAVRTYQEHKASMHPVTAMLVGKDLKVD
memory of the familiar arm in Y-maze testing (novel vs familiar arm entries) ([1]; paradigm 2: continuous dosing): impaired memory | memory of the familiar arm in Y-maze testing (novel vs familiar arm entries) ([1]; paradigm 2: pulse dosing): impaired memory | number of entries into the familiar arm during Y-maze training ([1]; paradigm 2: pulse or continuous dosing, vs PBS): no differences | anxiety as measured by percent time spent in periphery or center of the open field ([2]; paradigm 1: IV daily for 7 consecutive days, vs PBS): not affected | average velocity in open field [2, 4]: no change | total distance travelled in open field [2, 4]: no change | average velocity in open field [2, 5]: significant reduction | distance traveled in open field [2, 5]: significant reduction | anxiety as measured by percent time spent in periphery or center of the open field ([2]; paradigm 2: either dosing paradigm (pulse or continuous)): not affected | general locomotion as measured by total distance travelled and average velocity ([2]; paradigm 2: pulse dosing, IV daily for 7 consecutive days): impaired with continuous dosing of LTA4H, but not with pulse dosing | number of EdU-labeled cells within the granule cell layer of the dentate gyrus ([3]; paradigm 1, EdU in week 3, vs PBS): significant decrease | number of Ki67-labeled cells within the granule cell layer of the dentate gyrus ([3]; paradigm 1, vs PBS, listed as human recombinant LTA4H protein): significant decrease | number of Ki67-labeled cells within the granule cell layer of the dentate gyrus ([3]; paradigm 1, vs PBS, listed as recombinant LTA4H): fewer Ki67 labeled cells | number of BrdU and DCX co-labeled cells within the granule cell layer of the dentate gyrus ([3]; paradigm 2: continuous dosing): significant decrease | number of BrdU and DCX co-labeled cells within the granule cell layer of the dentate gyrus ([3]; paradigm 2: pulse dosing): statistical trend towards a decrease
